Results from patent US20250368742A1 (D2M BIOTHERAPEUTICS, published 2025).
Substitutions are numbered along the chain they refer to. Where two headings read alike, the source gives them in different places. Blank lines part the entries; values can stand above or below the binder they belong to.

Tests used:
human MICA008 on cells [1] = biological target: T1, human MICA008 on cells (human); test: flow cytometry, HeLa cells (MICA008)
T1 construct: whole, on cells; also called CHO-MICA008; C1R-MICA008

human MICA002 on cells [2] = biological target: T2, human MICA002 on cells (human); test: flow cytometry, CHO-MICA002 cells
T2 chain: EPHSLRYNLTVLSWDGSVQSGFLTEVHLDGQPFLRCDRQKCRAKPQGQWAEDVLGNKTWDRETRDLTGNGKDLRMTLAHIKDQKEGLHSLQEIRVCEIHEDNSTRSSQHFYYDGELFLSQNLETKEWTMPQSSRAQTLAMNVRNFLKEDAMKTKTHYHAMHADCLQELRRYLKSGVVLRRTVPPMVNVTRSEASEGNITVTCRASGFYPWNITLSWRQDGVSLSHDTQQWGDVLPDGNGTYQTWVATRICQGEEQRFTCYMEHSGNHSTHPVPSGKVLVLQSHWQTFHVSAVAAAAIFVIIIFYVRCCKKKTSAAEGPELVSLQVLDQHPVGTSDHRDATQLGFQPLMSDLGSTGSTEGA
Protocol: CHO-MICA002 cells were incubated with titrated anti-MICA/B antibodies and then APC-labeled anti-human Fc antibody. […] The antibody binding signals of APC (gMFI) to MICA/B were measured by flow cytometry.
(§1) After an incubation time of 30 minutes, the plate was centrifuged and cells were washed with PBS three times. […] After mixing for 30 minutes at room temperature, cells were washed with PBS twice. Fluorescent signal was detected and quantified by flow cytometry (Attune™ CytPix™, ThermoFisher) within the population of live cells (viability dye PI negative).

human MICA004 on cells = biological target: T3, human MICA004 on cells (human); test: flow cytometry, CHO-MICA004 cells
T3 construct: whole, on cells; also called CHO-MICA004; C1R-MICA004
Protocol: (§2) IgG1 is an isotype control (IgG). The antibody binding signals of APC (gMFI) to MICA/B were measured by flow cytometry.
as §1

MICA008-ECD-HISAvi [3] = biological target: T4, MICA008-ECD-HISAvi (human); test: SPR (Carterra); antibody captured by anti-human Fc, monomeric ECD antigen injected
T4 construct: Two sources under one name in the two kinetic assays; also called MICA008 polypeptide
T4 chain: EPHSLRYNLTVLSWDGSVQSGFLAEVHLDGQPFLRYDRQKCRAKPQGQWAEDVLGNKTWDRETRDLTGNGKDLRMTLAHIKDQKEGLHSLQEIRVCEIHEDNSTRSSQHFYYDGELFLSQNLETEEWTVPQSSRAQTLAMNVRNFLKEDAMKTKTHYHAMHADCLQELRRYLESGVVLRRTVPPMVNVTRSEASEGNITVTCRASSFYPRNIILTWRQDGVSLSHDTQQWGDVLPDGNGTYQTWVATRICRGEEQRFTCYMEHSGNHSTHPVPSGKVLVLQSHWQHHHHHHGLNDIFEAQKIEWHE
Protocol: (§3) The dissociation kinetics were monitored for approximately 10 minutes. The chip surface was regenerated between binding cycles with 10 mM glycine HCl, pH 1.7. Binding kinetics were analyzed using software supplied by the manufacturer.

MICB005-ECD-HISAvi [4] = biological target: T5, MICB005-ECD-HISAvi (human, UniProt Q29980 24-309); test: as above
T5 construct: Two sources under one name in the two kinetic assays; also called MICB005 polypeptide
T5 sequence: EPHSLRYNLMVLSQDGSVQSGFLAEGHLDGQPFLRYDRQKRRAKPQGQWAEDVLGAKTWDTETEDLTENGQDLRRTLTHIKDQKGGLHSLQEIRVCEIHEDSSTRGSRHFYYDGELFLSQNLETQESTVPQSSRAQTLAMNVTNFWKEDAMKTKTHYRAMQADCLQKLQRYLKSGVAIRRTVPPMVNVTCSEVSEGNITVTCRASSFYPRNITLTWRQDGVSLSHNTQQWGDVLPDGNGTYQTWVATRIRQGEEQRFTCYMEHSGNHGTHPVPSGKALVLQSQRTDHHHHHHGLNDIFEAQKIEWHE
Protocol: as §3

MICA004-ECD-HISAvi = biological target: T6, MICA004-ECD-HISAvi (human); test: as above
T6 construct: also called MICA004 polypeptide
T6 chain: T4 chain with L122V, G175S, T181R, I213T, R251Q
Protocol: as §3

MICA002-ECD-HISAvi [5] = biological target: T7, MICA002-ECD-HISAvi (human, UniProt Q29983 24-308); test: as above
T7 construct: also called MICA002 polypeptide
T7 chain: T4 chain with W14G, Y36C, V129M, E173K, S206G, R210W, I213T, T215S, R251Q
Protocol: as §3

human MICB005 on cells [6] = biological target: T8, human MICB005 on cells (human); test: flow cytometry on CHO-MICB005 cells; column HSA_2w (2 weeks in human serum at 37 C)
T8 construct: whole, on cells; also called CHO-MICB005; C1R-MICB005
Protocol: The plate was centrifuged, and cells were washed with PBS three times. […] After incubation for 30 minutes at room temperature, cells were washed with PBS twice. Signals of APC were determined by flow cytometry (Attune™ CytPix™, ThermoFisher) within the population of live cells (viability dye PI negative).
The EC50 values were calculated based on non-linear fitting curves by GraphPad Prism software.

human MICA008 on cells [7] = biological target: T1, human MICA008 on cells; test: flow cytometry, HeLa cells (MICA008); remark: listed apart in the source
Protocol: as §2, §1

human MICB005 on cells [8] = biological target: T8, human MICB005 on cells; test: flow cytometry, CHO-MICB005 cells
MICA008-ECD-HISAvi [9] = biological target: T4, MICA008-ECD-HISAvi; test: SPR (Carterra); antibody captured by anti-human Fc, monomeric ECD antigen injected
Protocol: as §3

MICB005-ECD-HISAvi [10] = biological target: T5, MICB005-ECD-HISAvi; test: as above; remark: listed apart in the source
Protocol: as §3

MICA002-ECD-HISAvi [11] = biological target: T7, MICA002-ECD-HISAvi; test: as above
Protocol: as §3

human MICA002 on cells [12] = biological target: T2, human MICA002 on cells; test: flow cytometry, CHO-MICA002 cells
human MICA008 on cells [13] = biological target: T1, human MICA008 on cells; test: flow cytometry, CHO-MICA008 cells
Protocol: as §2, §1

human MICB005 on cells [14] = biological target: T8, human MICB005 on cells; test: flow cytometry, CHO-MICB005 cells; remark: listed apart in the source
Protocol: as §2, §1

T1 sequence (Q29983 whole entry): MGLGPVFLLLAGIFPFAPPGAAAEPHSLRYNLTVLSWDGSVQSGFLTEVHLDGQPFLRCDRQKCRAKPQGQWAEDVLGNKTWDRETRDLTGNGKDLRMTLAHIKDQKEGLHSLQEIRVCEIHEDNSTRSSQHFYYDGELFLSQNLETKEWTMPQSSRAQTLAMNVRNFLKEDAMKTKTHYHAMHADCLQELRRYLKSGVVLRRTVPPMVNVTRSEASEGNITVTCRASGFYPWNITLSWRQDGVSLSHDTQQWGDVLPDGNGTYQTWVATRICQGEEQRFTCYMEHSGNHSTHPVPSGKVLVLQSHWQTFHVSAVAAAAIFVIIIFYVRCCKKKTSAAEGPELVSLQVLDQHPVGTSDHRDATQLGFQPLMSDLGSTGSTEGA
T3 sequence (Q29983 whole entry): as above

- EC50 (human MICA008 on cells [1]): 0.651 µg/mL
- EC50 (human MICA002 on cells [2]): 0.352 µg/mL
- EC50 (human MICA004 on cells): 0.443 µg/mL
- Kd (MICA008-ECD-HISAvi [3]): 2 nM
- Kd (MICB005-ECD-HISAvi [4]): 5.47 nM
- Kd (MICA004-ECD-HISAvi): 2.78 nM
- Kd (MICA002-ECD-HISAvi [5]): 1.65 nM
- EC50 (human MICB005 on cells [6]): 0.784 µg/mL
- EC50 (human MICA008 on cells [7]): 0.115 µg/mL
- EC50 (human MICB005 on cells [8]): 1.08 µg/mL
- Kd (MICA008-ECD-HISAvi [9]): 2.82 nM
- Kd (MICB005-ECD-HISAvi [10]): 9.29 nM
- Kd (MICA002-ECD-HISAvi [11]): 5.67 nM
- EC50 (human MICA002 on cells [12]): 0.857 µg/mL
- EC50 (human MICA008 on cells [13]): 0.119 µg/mL
- EC50 (human MICB005 on cells [14]): 0.572 µg/mL
B1: 3F9 (antibody, human IgG1, kappa, V domains shown)
VH: QVQLVESGGGLVKPGGSLRLSCAASGFTFSNYAMSWIRQAPGKGLEWVSYISPGGDYIYYADSVKGRFTISRDNAKNSLYLQMNSLRAEDTAVYYCTTDRRHYGSYAMDYWGQGTLVTVSS
VL: DIVMTQSPLSLPVTPGEPASISCRSSKSLLHSNLNTYLYWFLQKPGQSPQILIYRMSNLASGVPDRFSGSGSGTAFTLKISRVEAEDVGVYYCMQHLEYPFTFGPGTKLEIKR
notes: also called benchmark 3F9

- EC50 (human MICA008 on cells [1]): 0.133 µg/mL
- EC50 (human MICA002 on cells [2]): 0.19 µg/mL
- EC50 (human MICA004 on cells): 0.157 µg/mL
- Kd (MICA008-ECD-HISAvi [3]): 0.269 nM
- Kd (MICB005-ECD-HISAvi [4]): 0.96 nM
- Kd (MICA004-ECD-HISAvi): 0.52 nM
- Kd (MICA002-ECD-HISAvi [5]): 0.032 nM
- EC50 (human MICB005 on cells [6]): 0.287 µg/mL
- EC50 (human MICA008 on cells [7]): 0.034 µg/mL
- EC50 (human MICB005 on cells [8]): 0.198 µg/mL
- Kd (MICA008-ECD-HISAvi [9]): 1.79 nM
- Kd (MICB005-ECD-HISAvi [10]): 2.3 nM
- Kd (MICA002-ECD-HISAvi [11]): 0.47 nM
- EC50 (human MICA002 on cells [12]): 0.301 µg/mL
- EC50 (human MICA008 on cells [13]): 0.028 µg/mL
- EC50 (human MICB005 on cells [14]): 0.152 µg/mL
B2: 1D5 (antibody, human IgG1, kappa, V domains shown)
VH: EIQLQQSGPELVKPGASVKVSCKASGYAFTSQNIYWVKQSHGKSLEWIGYIEPYNVVPMYNPKFKGKATLTVDKSSSSAYIHLNSLTSEDSAIYYCARSGSSNFDYWGQGTTLTVSS
VL: EIILTQSPTTMAASPGEKITITCSASSSISSHYLHWYQQKSGFSPKLLIYRTSNLASGVPARFSGSGSGTSYSLTIGTMEAEDVATYYCQQGSSLPLTFGAGTKVEIKR
notes: also called ID5
